Reference: publication doi:10.1101/2020.10.29.360743

Molecular target: AcoD, ATP-dependent DMSP lyase of Psychrobacter sp. D2 (Psychrobacter sp. D2)
Assay: SEC

“AcoD, ATP-dependent DMSP lyase of Psychrobacter sp. D2 (enzyme)” was tested, and the stoichiometry N was 2.
